In patent US20140079706A1 (published 2014):

Legend:
[1] = target: T1, human CSF-1R fragment D1-D3 (human, UniProt P07333 20-311); experiment: SPR Biacore T100, 37°C; antibody captured, D1-D3 injected, single cycle kinetics
T1 construct: Subcloned into pCMV-presS-HisAvitag expression vector
Method: Antibodies against CSF-1R were captured via amine coupled capture molecules. Using the single cycle kinetics five increasing concentrations of human CSF-1R fragment D1-D3 (SEQ ID NO: 66) were injected. Human CSF-1R fragment D1-D3 was subcloned into pCMV-presS-HisAvitag expression vector.
Single Cycle Kinetics was measured at a flow rate of 30 μL/min by five consecutive injections of the analyte with concentrations, c=7.8, 31.25, 125 500 and 2000 nM, without regeneration. Each injection was 30 seconds long and followed by a dissociation phase of 120 Seconds for the first four injections, and finally 1200 seconds for the highest concentration (=last injection).
Kinetic parameters were calculated by using the usual double referencing (control reference: binding of analyte to capture molecule; Flow Cell: subdomain CSF-1R concentration “0” as Blank) and calculation with model ‘titration kinetics 1:1 binding with draft’.

[2] = target: CSF-1R on cynomolgous monocytes (cynomolgous); experiment: cell-based or functional assay

T1 sequence (P07333 20-311 limits assumed): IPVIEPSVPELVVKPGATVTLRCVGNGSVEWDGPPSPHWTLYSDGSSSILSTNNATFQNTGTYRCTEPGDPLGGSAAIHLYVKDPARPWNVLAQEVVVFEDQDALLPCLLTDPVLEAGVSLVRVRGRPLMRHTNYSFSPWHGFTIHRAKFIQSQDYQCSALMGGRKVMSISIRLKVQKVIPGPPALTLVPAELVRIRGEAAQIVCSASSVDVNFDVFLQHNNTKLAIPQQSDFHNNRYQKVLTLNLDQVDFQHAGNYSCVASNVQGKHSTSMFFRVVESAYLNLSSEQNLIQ

B1: Mab 2F11 (antibody, V domains shown)
VH: QVQLKESGPGLVAPSQSLSITCTVSGFSLTTYDISWIRQSPGKGLEWLGVIWTDGGTNYNSPFMSRLSIRKDNSKSQVFLKMNRLQTDDTAIYYCVRDQRLYFDVWGAGTTVTVSS
VL: NIVMTQSPKSMSMSVGERVTLNCKASEDVNTYVSWYQQQPEQSPKLLIYGASNRYTGVPDRFTGGGSTTDFTLTISSVQAEDLADYFCGQSFSYPTFGTGTKLEIK
notes: Murine monoclonal antibody from hybridoma; also called muMab 2F11
binding result [1]: no binding (tested: up to 2000 nM D1-D3)
% inhibition (of survival) = (100% - % survival), cynomolgous monocytes, 5 µg/ml antibody [2]: 96%
% survival of cynomolgous monocytes at 5 µg/ml antibody (150 ng/ml huCSF-1, CellTiterGlo) [2]: 4%

B2: Mab 1G10 (antibody, V domains shown)
VH: RVQLKESGPGLVAPSQSLSITCTVSGFSLTSYDISWIRQSPGKGLEWLGVIWSGGGTNYNSPFMSRLRISKDDSRSQVFLKVNRLQTDDTAIYYCVRDLRLYFDVWGAGTTVTVSS
VL: KIVMTQSPKSMSVSVGERVSLSCKASEDVGTYVSWYQQKPEQSPKLLIYGSSNRYTGVPDRFTGSGSATDFTLTISSVQAEDLADYSCGQSFTYPTFGTGTKLEIK
notes: Murine monoclonal antibody
binding result [1]: no binding (tested: up to 2000 nM D1-D3)
% inhibition (of survival) = (100% - % survival), cynomolgous monocytes, 5 µg/ml antibody [2]: 98%
% survival of cynomolgous monocytes at 5 µg/ml antibody (150 ng/ml huCSF-1, CellTiterGlo) [2]: 2%

B3: Mab 2E10 (antibody, V domains shown)
VH: QVQLKESGPGLVAPSKSLSITCTVSGSSLDSFDISWIRQSPGKGLEWLGVIWTGGGTNYNSGFMSRLRITKDNSKSQVLLKMNSLQSDDTAIYYCVRDPRLYFDVWGAGTTVTVSS
VL: NIVMTQSPKSMSMSVGERVTLSCKASEDVVTYVSWYQQKPDQSPKLLIYGASNRYTGVPDRFTGSGSATDFTLTISSVQAEDLADYYCGQTFSYPTFGTGTKLEIK
notes: Murine monoclonal antibody
binding result [1]: no binding (tested: up to 2000 nM D1-D3)
% inhibition (of survival) = (100% - % survival), cynomolgous monocytes, 5 µg/ml antibody [2]: 83%
% survival of cynomolgous monocytes at 5 µg/ml antibody (150 ng/ml huCSF-1, CellTiterGlo) [2]: 17%

B4: Mab 2H7 (antibody, V domains shown)
VH: QVQLKESGPGLVAPSKSLSITCTVSGSSLDSFDISWIRQPPGKGLEWLGVIWTGGGTNYNSGFMSRLRISKDNSKSQVFLKMSSLQSDDTAIYYCVRDPRLYFDVWGAGTTVTVSS
VL: NIVMTQSPKSMSMSVGERVTLSCKASEDVVTYVSWYQQKPEQSPKLLIYGASNRYTGVPDRFTGSGSATDFTLTISSIQAEDLADYYCGQTFSYPTFGTGTKLEIK
notes: Murine monoclonal antibody
% inhibition (of survival) = (100% - % survival), cynomolgous monocytes, 5 µg/ml antibody [2]: 92%
% survival of cynomolgous monocytes at 5 µg/ml antibody (150 ng/ml huCSF-1, CellTiterGlo) [2]: 8%
